Results reported in the supplement of paper PMC10567573.

B1: GFOD1 (parent)
chain: EEAEELAKEMSVPFYTSRIDEVLL

Variants of: B1
Experiment: protein stability index of a GFP-peptide fusion (GPS, HEK-293T) (PSI 1-6); higher = more stable
Settings: c terminus: a fixed tail appended
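Further: lentivirally expressed fusions sorted by FACS into six bins by GFP to DsRed ratio, PSI derived from sequencing read proportions per bin multiplied by bin number.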

Variant | protein stability index
EEAEELAKEMSSPFYTSRIDEVLL [V12S] | 4.46
EEAEELAKEMSYPFYTSRIDEVLL [V12Y] | 4.22
EEAEELAKEMSMPFYTSRIDEVLL [V12M] | 4.31
EEAEELAKEMSGPFYTSRIDEVLL [V12G] | 4.26
EEAEELAKEMSDPFYTSRIDEVLL [V12D] | 3.47
ENAEELAKEMSVPFYTSRIDEVLL [E2N] | 4
ECAEELAKEMSVPFYTSRIDEVLL [E2C] | 3.06
EGAEELAKEMSVPFYTSRIDEVLL [E2G] | 3.39
EWAEELAKEMSVPFYTSRIDEVLL [E2W] | 3.66
EEAEELAKEWSVPFYTSRIDEVLL [M10W] | 4.5
EEAEELAKEQSVPFYTSRIDEVLL [M10Q] | 4.26
EEAEELAKERSVPFYTSRIDEVLL [M10R] | 3.81
EEAEELAYEMSVPFYTSRIDEVLL [K8Y] | 2.86
EEAEELAPEMSVPFYTSRIDEVLL [K8P] | 3.59
EEAEELACEMSVPFYTSRIDEVLL [K8C] | 2.9
EEAEELANEMSVPFYTSRIDEVLL [K8N] | 3.39
EEAEELAKEMSVPFYTSRIQEVLL [D20Q] | 3.79
EEAEELAKEMSVPFYTSRIDEVDL [L23D] | 5.11
EEAEELAKEMSVPFYTSRIDEVEL [L23E] | 5.13
EEAEELAKEMSVPFYTSRIDEVRL [L23R] | 4.31
EEAEELAKEMSVPFATSRIDEVLL [Y15A] | 4.47
EEAEELAKEMSVPFPTSRIDEVLL [Y15P] | 5
EEAEELAKEMSVPFGTSRIDEVLL [Y15G] | 4.97
EEAEELAKEMSVPFHTSRIDEVLL [Y15H] | 4.77

Variant | protein stability index
EEAEELAKEMSVPFNTSRIDEVLL [Y15N] | 4.83
EEAEELAKEMSVPFYTSRIDEVLS [L24S] | 4.41
EEAEELAKEMSVPFYTSRIDEVLH [L24H] | 3.18
EEAAELAKEMSVPFYTSRIDEVLL [E4A] | 3.45
EEALELAKEMSVPFYTSRIDEVLL [E4L] | 2.9
EEAWELAKEMSVPFYTSRIDEVLL [E4W] | 2.77
EEACELAKEMSVPFYTSRIDEVLL [E4C] | 2.73
EEAGELAKEMSVPFYTSRIDEVLL [E4G] | 3.4
EEATELAKEMSVPFYTSRIDEVLL [E4T] | 3.86
EEAEELAKEMSVPFYTSRIDFVLL [E21F] | 1.42
EEAEELAKEMSVPFYTSRIDETLL [V22T] | 4.51
EEAEELAKEMSVPFYTSRIDEPLL [V22P] | 4.24
EEAEELAKEMSVPFYTSRIDEDLL [V22D] | 5.23
EEAEELAKEMSVPFYTSRIDENLL [V22N] | 4.21
EEAEELAKEMSVPFYTSRIDEFLL [V22F] | 3.73
EEAEELAKEMSVPFYTSRIDELLL [V22L] | 3.1
EEAEELAKEMSVPFYTSRIDECLL [V22C] | 3.7
EEAEELAKEMSVPFYTSRIDEMLL [V22M] | 4.29
EEAEELAKEMSVPFYTSRIDESLL [V22S] | 3.86
EEEEELAKEMSVPFYTSRIDEVLL [A3E] | 4.32
EEVEELAKEMSVPFYTSRIDEVLL [A3V] | 3.32
EEYEELAKEMSVPFYTSRIDEVLL [A3Y] | 3.38
EEAEELAKEMSVPFYTSRVDEVLL [I19V] | 4.31
EEAEELTKEMSVPFYTSRIDEVLL [A7T] | 3.79

Variant | protein stability index
EEAEELAKEMSVPLYTSRIDEVLL [F14L] | 3.79
EEAEELAKEMSVPMYTSRIDEVLL [F14M] | 3.83
EEAEELAKEMSVPGYTSRIDEVLL [F14G] | 3.4
EEAEELAKEMGVPFYTSRIDEVLL [S11G] | 2.97
EEAEELAKEMWVPFYTSRIDEVLL [S11W] | 2.76
EEAEELAKEMKVPFYTSRIDEVLL [S11K] | 3.17
EEAEELAKEMSVPFYTPRIDEVLL [S17P] | 4.43
EEAEELAKNMSVPFYTSRIDEVLL [E9N] | 3.71
EEAEELAKLMSVPFYTSRIDEVLL [E9L] | 2.16
EEAEELAKCMSVPFYTSRIDEVLL [E9C] | 2.55
EEAEELAKMMSVPFYTSRIDEVLL [E9M] | 3.03
EEAEELAKDMSVPFYTSRIDEVLL [E9D] | 3.93
EEAEELAKPMSVPFYTSRIDEVLL [E9P] | 3.01
EEAEELAKEMSVNFYTSRIDEVLL [P13N] | 3.78
EEAEELAKEMSVQFYTSRIDEVLL [P13Q] | 3.47
EEAEELAKEMSVMFYTSRIDEVLL [P13M] | 3.32
EEAEELAKEMSVWFYTSRIDEVLL [P13W] | 1.97
LEAEELAKEMSVPFYTSRIDEVLL [E1L] | 3.75
SEAEELAKEMSVPFYTSRIDEVLL [E1S] | 4.24
AEAEELAKEMSVPFYTSRIDEVLL [E1A] | 3.79
GEAEELAKEMSVPFYTSRIDEVLL [E1G] | 2.43
HEAEELAKEMSVPFYTSRIDEVLL [E1H] | 4.47
REAEELAKEMSVPFYTSRIDEVLL [E1R] | 3.33
EEAEKLAKEMSVPFYTSRIDEVLL [E5K] | 4.14

Variant | protein stability index
EEAEALAKEMSVPFYTSRIDEVLL [E5A] | 3.45
EEAEWLAKEMSVPFYTSRIDEVLL [E5W] | 2.35
EEAEFLAKEMSVPFYTSRIDEVLL [E5F] | 2.94
EEAEMLAKEMSVPFYTSRIDEVLL [E5M] | 2.95
EEAERLAKEMSVPFYTSRIDEVLL [E5R] | 3.56
EEAEDLAKEMSVPFYTSRIDEVLL [E5D] | 3.93
EEAEGLAKEMSVPFYTSRIDEVLL [E5G] | 4.04
EEAEELAKEMSVPFYLSRIDEVLL [T16L] | 2.75
EEAEELAKEMSVPFYNSRIDEVLL [T16N] | 4.17
EEAEELAKEMSVPFYISRIDEVLL [T16I] | 3.08
EEAEELAKEMSVPFYPSRIDEVLL [T16P] | 3.65
EEAEELAKEMSVPFYRSRIDEVLL [T16R] | 3.27
EEAEELAKEMSVPFYWSRIDEVLL [T16W] | 2.32
EEAEELAKEMSVPFYASRIDEVLL [T16A] | 4
EEAEELAKEMSVPFYDSRIDEVLL [T16D] | 4.33
EEAEELAKEMSVPFYVSRIDEVLL [T16V] | 3.45
EEAEELAKEMSVPFYTSFIDEVLL [R18F] | 3.17
EEAEELAKEMSVPFYTSSIDEVLL [R18S] | 4.56
EEAEELAKEMSVPFYTSYIDEVLL [R18Y] | 4.04
EEAEELAKEMSVPFYTSTIDEVLL [R18T] | 4.27
EEAEELAKEMSVPFYTSPIDEVLL [R18P] | 4.15
EEAEELAKEMSVPFYTSAIDEVLL [R18A] | 4.26
